Laboratory results taken from the supplement of paper PMC12764529.
± gives the half width of the 95% confidence interval.

How the values were obtained:
[1] = folding stability dG unfold from trypsin proteolysis; higher = more stable
Procedure, shortened: (§1)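 Only designs with AlphaFold2 dimer inter-PAE above 15 were retained; each was a mini-protein under 80 residues with no cysteine, in a PA-tagged cDNA display construct. After digestion with trypsin and chymotrypsin and sequencing, K50 was inferred by Bayesian fitting of counts, and unfolding free energy was derived per protease or combined against a sequence-predicted unfolded-state K50 and a shared folded-state K50.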

[2] = folding stability dG unfold (combined trypsin and chymotrypsin); higher = more stable
Procedure, shortened: as §1

[3] = folding stability dG unfold from chymotrypsin proteolysis; higher = more stable
Procedure, shortened: as §1

Sequence | folding stability dG unfold [1] [kJ/mol] | folding stability dG unfold [2] [kJ/mol] | folding stability dG unfold [3] [kJ/mol]
SASAAEEIERALLPLPNIPTAPLATFTLPDAPVEVVSYDPVTGRVLVRLTGTGALFVFDPETGEAELLPSAG [r14_359_TrMRF] | 10.7 ± 0.669 | 11.3 ± 1.42 | 10.9 ± 0.226
SASISVASPEEAEKIAKELKEKYGAKSVKIEPLPEPLVKVTIEFEVPLENGKTATRKIVLLFSSDGKEESAG [r14_420_TrMRF] | 7.84 ± 0.184 | 10.2 ± 0.31 | 11.36 ± 0.0669
SASITIPVDELKDFAEHFPGFNVGVNPETGMFQIFFPENGWMINIDIEVDPDDPDTIEIDIEIYPMPPNSAG [r14_604_TrROS] | 7.45 ± 0.544 | 10.8 ± 1.55 | 12.4 ± 0.628
SASKGSSMITVELTVTVPPSVSIEEVKKQFEEEFPKDAEIKVEATPVTVPANGTPVTTIKVTVTITKKESAG [r14_633_JUSTAS] | 5.31 ± 0.418 | 6.53 ± 0.544 | 7.17 ± 0.46
SASKRFVFPVLGDEQTITVDVPEDYYVRITVFFPDGSEPILIPPNEKVTITVPRKDAFVVIEVFPKNEESAG [r14_882_TrMRF] | 10.8 ± 0.322 | 10.4 ± 0.28 | 9.84 ± 0.105
SASLEPVATTAVPLPDGTTATLTLYRDPATGRYTVRVTVTHPDGAAETRVLEVDSEEEALSRVVLSPGASAG [r14_749_JUSTAS] | 9.96 ± 0.205 | 13.1 ± 0.314 | 14.31 ± 0.0753
SASLPPGQVRSLPVDVTIETPEGQPRFTEPATLEPPPRLVVDVALPLPPGEVTITIRLPGPGVTLTIERSAG [r14_280_JUSTAS] | 2.35 ± 0.372 | 5.93 ± 1.55 | 6.4 ± 0.669
SASLTLTITLPDGAKITSITVEEVDGELVLTEITVETTNENGEKTTVTRTIVLKLPPAPPAHPDDPALKSAG [r14_95_TrROS_Hall] | 8.9 ± 0.544 | 10.3 ± 0.628 | 11 ± 0.502
SASMTLTIPLPLKPGDRVVVEATHPLGYGFETEELPDGSVRLTLTVPTPDAPPATLHIRVYEPNTGKLASAG [r14_39_TrMRF] | 9.53 ± 0.213 | 11.9 ± 0.418 | 13.5 ± 0.234
SASMTYTVTVTVSVKNPDGTPIGTIPITRTMNLDEAKVIVEKEIKKTVDELFPGKPANVTVDTTVTPLPSAG [r14_570_JUSTAS] | 2.01 ± 0.544 | 3.76 ± 1.13 | 6.69 ± 1.76
SASPWIQKLAEEIADELAKENGWEEVKFTVTLPIRMPMYRYDPNGKKEPHDMWMWIKFEVTARVPPGDPSAG [r14_232_TrROS] | 9.54 ± 0.255 | 8.95 ± 1 | 8.42 ± 0.753
SASSMSLSFSVSLETDPEKGLLSTVTTTSTVTPYPDSVVTTTTVTTTVTPVPPGPPVVSPSATPVVALSSAG [r14_435_JUSTAS] | 6.17 ± 0.167 | 4.75 ± 0.213 | 2.48 ± 0.41
SASSSSSSYNVTIDPATGTVTVTNPDGSTTTVPPGSTLTVTSTSSDGGSALGSSTPSTSTTTIPVPAGTSAG [r14_366_JUSTAS] | 4.41 ± 0.209 | 3.84 ± 0.297 | 2.93 ± 0.381
SATAVVIKAEVIFPNNEKKEISVVIENLTEEEVEELAEELEKKIKEEAGIPDIEVKIKVETFAKDDPAFSAG [r14_207_TrMRF] | 1.83 ± 0.669 | 4.36 ± 1.26 | 4.24 ± 0.377
SATFTLPDGREVEVVSVEYDPETNTVTVLVRDRETGELYVFTFERLPDGEWRIVSRERVRVEPGETVLVSAG [r14_13_TrROS_Hall] | 8.44 ± 0.105 | 12.3 ± 0.293 | 13.53 ± 0.092
SATGKLAELLEEAFPDRPIASAEILGVEPLPDGRPALRFLLTFEDGSKLVVTVTSADHPEVLEAARENQSAG [r14_143_TrMRF] | 12.7 ± 0.268 | 12.4 ± 0.172 | 12.19 ± 0.0586

Sequence | folding stability dG unfold [1] [kJ/mol] | folding stability dG unfold [2] [kJ/mol] | folding stability dG unfold [3] [kJ/mol]
SAVVSVDPATGVVTAKVKVDDTELTVTITRDPATGAWPVTFTPPGSGTPVVLDVPFTSVEEAIELAKRLSAG [r14_803_JUSTAS] | 6.44 ± 0.0837 | 6.65 ± 0.209 | 6.52 ± 0.151
SAWKIEIKEVKRNPDGWYEITITIPFPGDPNMPVDELADEILQEFGIKDVTVEPNPDNGWIEITIRIPRSAG [r14_228_TrROS] | 10.3 ± 0.28 | 10.4 ± 0.795 | 10.6 ± 0.238
SAWVIPFEVRLPGSPEQARRQVEEWADNIANRYQQNGFRVVDIKIDEIEPDNVRVRLTIQIVPPGQEIPSAG [r14_973_TrROS] | 11.5 ± 0.335 | 11.1 ± 0.586 | 10.6 ± 0.226
SAYIQIERDPDGYIKIEVWFDSPDEGKEFVKEFVKELADQGLDIKIKVTKIEPYPGDPNMYRVSYTIKVSAG [r14_119_TrROS] | 11.5 ± 0.41 | 14.7 ± 0.347 | 16.14 ± 0.159
SAYLMFMIPIKNDEITIKIPVPPGYYVRIFVFFPDGMEPRTIPPDEKVKIKIPKPGAWIMIMVYPAEEMSAG [r14_882_TrROS] | 14.1 ± 0.502 | 18.5 ± 0.586 | 20.9 ± 0.669
SAYRIEIEIPSPKLAKKLEALLPPNYRIDNVRRNKNDNQVKITVEYDPGMPPSRMRRIHKEIKELIKELSAG [r14_306_TrROS] | 5.18 ± 0.368 | 7.76 ± 0.753 | 9.35 ± 0.322
SAYYIIIKIENPNDGKPFIIMIPGNNIHIFDPDNGKPVEIEVDGDKIEIKFNNRPVTVKPLEVIPPEAISAG [r14_208_TrROS] | 6.46 ± 0.46 | 9 ± 0.962 | 10.1 ± 0.167
SDDIKNMPFRITEIEPLPPGDPIPPGQRIRITIQMPDFPGQPFEFDIRVDPENGMIYMEMGGMPFEIPIKSA [r9_243_TrROS] | 6.71 ± 0.0795 | 7 ± 0.628 | 6.69 ± 0.544
SDEGYKVEINPMIHRTDGKVTIMFMIQIKPGLDDLKIKIKLRLPDGKPMKVDYQRNPDNGFIMVSATMPPSA [r9_159_TrROS] | 12.2 ± 0.418 | 14.8 ± 0.586 | 17.6 ± 0.276
SDETVELPTVYTLYFGKDGTPRYYITVTLGDGPVAMELPEVSPDVKDGDVVPVKVPSSVVTSYSVSSAPASA [r9_769_JUSTAS] | 2.81 ± 0.297 | 3.38 ± 0.247 | 3.25 ± 0.402
SDKLAKLLEDELEKAGYEVVSVEVRYDPEKGLLYVNALVRRKDDPTWYRVRAVYNPETDELLEVKIEPLPSA [r9_814_TrMRF] | 23.3 ± 0.879 | > 25.1 | 26.3 ± 0.46
SDKVVIHFYPGMPVSNIVERVADNPDMTIEIVMPPGMKPSWYNYIRKALRDANIPKDQKVEIEWVPYDDMSA [r9_670_TrROS] | 13 ± 0.502 | 15 ± 0.339 | 16.4 ± 0.176
SEAEVEVEVLPGPDAVVVRVRLPGRDEVVELRVLDPHPGEGRVLVAVSPGDDDTVVVRDLSPEDIKALLASA [r9_1221_TrMRF] | 7.712 ± 0.0753 | 6.28 ± 0.234 | 4.07 ± 0.23
SEAKTMSPEELKEFIEEYIEEERKKNPGKPVRIAIEDLKEKFPGFSPEELKKLLGLSEEELENGAIEIEPSA [r9_525_TrMRF] | 7.58 ± 0.364 | 9.3 ± 1 | 9.94 ± 0.46
SEEIIKALEEAGYEVESIEYDEETKTVTITIYRKNKETGKIEKKTITIEVEPGMTEEELLALARELLEKESA [r9_184_TrROS_Hall] | 20 ± 3.89 | 20.2 ± 2.76 | 19.7 ± 1.3
